The target of assay [1] is membrane translocated mature FopA (Francisella tularensis outer membrane protein A) with C-terminal octa-histidine tag (F. tularensis subsp. tularensis strain SCHU S4). Description: native gel or EMSA.
The target is the same in assay [2]. Put plainly: small angle X-ray scattering (SEC-SAXS). On the technique in general: Size exclusion chromatography separates by hydrodynamic size, large species first.

The term stoichiometry N denotes the number of molecules, sites or subunits per partner or assembly. With “membrane translocated mature FopA (Francisella tularensis outer membrane protein A) with C-terminal octa-histidine tag (natural protein)”, the stoichiometry N in assay [1] and in assay [2] was 2 in each case.

Values taken from PMC9342783.
